Experimental data from the supplement of paper PMC10724198.
± gives the standard deviation of the averaged measurements.

Tests used:
[1] = system: Saccharomyces cerevisiae; assay: protein stability index of tFT-peptide fusion (C-terminal peptide) (PSI (0-1 scale)); higher = more stable (slower turnover)
Procedure: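 MPS profiling in S. cerevisiae of the tFT-X12 degron library: putative degron peptides plus stable controls, 12 aa, fused to the C-terminus of a sfGFP-mCherry timer. Cells are FACS-sorted into 8 mCherry/sfGFP bins and deep-sequenced. PSI runs from 0 (unstable) to 1 (stable). Backgrounds are wild type, das1Δ and doa10Δ at 30 °C, and wild type, das1Δ, cdc34-1 and cdc53-1 at 37 °C; 2-3 technical replicates each.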

[2] = system: Saccharomyces cerevisiae; assay: as above; settings: genetic background: wild type; temperature: 30 C
[3] = genetic background: cdc34-1, temperature: 37 C
[4] = genetic background: cdc53-1, temperature: 37 C
[5] = genetic background: das1 deletion, temperature: 30 C
[6] = genetic background: das1 deletion, temperature: 37 C
[7] = genetic background: doa10 deletion, temperature: 30 C
[8] = genetic background: wild type, temperature: 30 C
[9] = genetic background: wild type, temperature: 37 C
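Further: PSI is a weighted mean of sequencing reads over stability bins, variants kept only with over 10 reads, mCherry proximal and sfGFP distal, peptide attached via GGGS linker.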

Row | Sequence | protein stability index [1, 3] | protein stability index [1, 4] | protein stability index [1, 5] | protein stability index [1, 6] | protein stability index [1, 7] | protein stability index [1, 8] | protein stability index [1, 9] | protein stability index [2]
1 | HGVYSVLRFFFC | 0.664 ± 0.038 | 0.723 ± 0.021 | 0.659 ± 0.011 | 0.671 ± 0.03 | 0.329 ± 0.0035 | 0.365 ± 0.017 | 0.579 ± 0.023 | 0.453 ± 0.0086
2 | HINRTIWARYQV | 0.648 ± 0.069 | 0.742 ± 0.009 | 0.643 ± 0.033 | 0.75 ± 0.021 | 0.156 ± 0.019 | 0.174 ± 0.034 | 0.429 ± 0.032 | 0.362 ± 0.071
3 | HLGNTMIKKLIG | 0.695 ± 0.049 | 0.722 ± 0.046 | 0.621 ± 0.012 | 0.728 ± 0.035 | 0.405 ± 0.033 | 0.459 ± 0.064 | 0.6202 ± 0.0029 | 0.516 ± 0.023
4 | HLYPFPSLHFAF | 0.74 ± 0.043 | 0.791 ± 0.012 | 0.681 ± 0.013 | 0.778 ± 0.026 | 0.683 ± 0.025 | 0.688 ± 0.015 | 0.753 ± 0.019 | 0.799 ± 0.1
5 | HNQDKNVKYKIG | 0.672 ± 0.023 | 0.733 ± 0.034 | 0.625 ± 0.032 | 0.705 ± 0.021 | 0.248 ± 0.006 | 0.33 ± 0.039 | 0.536 ± 0.0064 | 0.41 ± 0.037
6 | HRDVISVVRNMS | 0.625 ± 0.016 | 0.70886 ± 0.00045 | 0.659 ± 0.058 | 0.715 ± 0.019 | 0.246 ± 0.022 | 0.333 ± 0.022 | 0.576 ± 0.012 | 0.43 ± 0.027
7 | HRHCVSSYQKVS | 0.662 ± 0.08 | 0.708 ± 0.013 | 0.648 ± 0.028 | 0.715 ± 0.0042 | 0.242 ± 0.0074 | 0.285 ± 0.027 | 0.556 ± 0.01 | 0.401 ± 0.054
8 | HRNILSIIIKNL | 0.541 ± 0.083 | 0.681 ± 0.027 | 0.642 ± 0.057 | 0.685 ± 0.029 | 0.0819 ± 0.039 | 0.0771 ± 0.015 | 0.1025 ± 0.00088 | 0.109 ± 0.046
9 | ICTHPCLRLRLN | 0.517 ± 0.039 | 0.662 ± 0.028 | 0.634 ± 0.012 | 0.732 ± 0.019 | 0.0875 ± 0.018 | 0.0887 ± 0.016 | 0.144 ± 0.055 | 0.165 ± 0.0032
10 | IDLISRVTVVAR | 0.394 ± 0.02 | 0.4267 ± 0.0012 | 0.268 ± 0.036 | 0.464 ± 0.0081 | 0.2236 ± 0.0022 | 0.288 ± 0.029 | 0.441 ± 0.01 | 0.4 ± 0.0047
11 | IDLVAFCTIFAL | 0.4606 ± 0.0013 | 0.494 ± 0.032 | 0.363 ± 0.03 | 0.516 ± 0.01 | 0.295 ± 0.0078 | 0.33 ± 0.02 | 0.469 ± 0.018 | 0.3975 ± 0.0032
12 | IERGLMLTLCVH | 0.0536 ± 0.009 | 0.0716 ± 0.028 | 0.172 ± 0.027 | 0.205 ± 0.0033 | 0.115 ± 0.013 | 0.156 ± 0.024 | 0.171 ± 0.0059 | 0.22 ± 0.014
13 | IERLRLRTRIIC | 0.469 ± 0.053 | 0.481 ± 0.049 | 0.423 ± 0.021 | 0.542 ± 0.0096 | 0.127 ± 0.015 | 0.131 ± 0.036 | 0.13441 ± 5e-06 | 0.2349 ± 0.0012
14 | IFIVLDFRCVSS | 0.302 ± 0.1 | 0.463 ± 0.024 | 0.256 ± 0.016 | 0.4371 ± 0.0012 | 0.243 ± 0.011 | 0.242 ± 0.043 | 0.381 ± 0.046 | 0.339 ± 0.016
15 | IFLLFPFSWRIF | 0.596 ± 0.042 | 0.6301 ± 0.0061 | 0.56 ± 0.039 | 0.694 ± 0.011 | 0.364 ± 0.027 | 0.376 ± 0.033 | 0.539 ± 0.036 | 0.446 ± 0.034
16 | IFLLLRRIIALS | 0.126 ± 0.0094 | 0.326 ± 0.044 | 0.411 ± 0.047 | 0.554 ± 0.023 | 0.0418 ± 0.017 | 0.0337 ± 0.0068 | 0.0499 ± 0.018 | 0.107 ± 0.12
17 | IFPSRSLLAASA | 0.403 ± 0.013 | 0.457 ± 0.062 | 0.339 ± 0.033 | 0.5192 ± 0.0019 | 0.317 ± 0.016 | 0.339 ± 0.025 | 0.48 ± 0.028 | 0.446 ± 0.0097
18 | IFSFRWVLPFWL | 0.611 ± 0.059 | 0.701 ± 0.008 | 0.6 ± 0.026 | 0.70093 ± 0.00061 | 0.2407 ± 0.00051 | 0.256 ± 0.04 | 0.424 ± 0.0043 | 0.365 ± 0.098
19 | IHCLSIVVHGLS | 0.527 ± 0.045 | 0.569 ± 0.047 | 0.471 ± 0.024 | 0.588 ± 0.0099 | 0.48 ± 0.016 | 0.475 ± 0.019 | 0.563 ± 0.027 | 0.499 ± 0.043
20 | IHIFIIFRVQWK | 0.176 ± 0.064 | 0.232 ± 0.036 | 0.179 ± 0.025 | 0.272 ± 0.018 | 0.163 ± 0.0023 | 0.156 ± 0.05 | 0.249 ± 0.03 | 0.227 ± 0.012

Row | Sequence | protein stability index [1, 3] | protein stability index [1, 4] | protein stability index [1, 5] | protein stability index [1, 6] | protein stability index [1, 7] | protein stability index [1, 8] | protein stability index [1, 9] | protein stability index [2]
21 | IHRSPLTLPLLV | 0.526 ± 0.021 | 0.584 ± 0.023 | 0.461 ± 0.031 | 0.5726 ± 0.005 | 0.406 ± 0.014 | 0.435 ± 0.019 | 0.5383 ± 0.0043 | 0.468 ± 0.08
22 | IIFCVRVVGGDL | 0.449 ± 0.038 | 0.508 ± 0.0054 | 0.371 ± 0.029 | 0.5566 ± 0.00057 | 0.332 ± 0.0066 | 0.38 ± 0.018 | 0.5288 ± 0.0041 | 0.46 ± 0.04
23 | IIIRVTILCEQF | 0.135 ± 0.097 | 0.176 ± 0.0098 | 0.146 ± 0.02 | 0.258 ± 0.018 | 0.113 ± 0.0089 | 0.137 ± 0.0053 | 0.212 ± 0.011 | 0.241 ± 0.0066
24 | IILAIRLLVDTL | 0.0479 ± 0.026 | 0.179 ± 0.012 | 0.146 ± 0.025 | 0.266 ± 0.011 | 0.12 ± 0.0039 | 0.132 ± 0.025 | 0.238 ± 0.026 | 0.248 ± 0.021
25 | IILRPQYVHYFL | 0.532 ± 0.035 | 0.594 ± 0.027 | 0.497 ± 0.025 | 0.5597 ± 0.00026 | 0.482 ± 0.023 | 0.484 ± 0.025 | 0.5457 ± 0.00084 | 0.454 ± 0.018
26 | IIVLNIGSVIFC | 0.456 ± 0.063 | 0.5884 ± 0.002 | 0.397 ± 0.018 | 0.5716 ± 0.0053 | 0.387 ± 0.0076 | 0.4057 ± 0.0017 | 0.549 ± 0.028 | 0.4951 ± 0.0022
27 | IKSLLGCWHKHY | 0.679 ± 0.017 | 0.732 ± 0.0077 | 0.647 ± 0.031 | 0.7145 ± 0.0066 | 0.279 ± 0.028 | 0.303 ± 0.057 | 0.574 ± 0.04 | 0.479 ± 0.018
28 | ILCVEFFVSVSV | 0.0684 ± 0.008 | 0.2486 ± 0.0024 | 0.163 ± 0.025 | 0.277 ± 0.0064 | 0.136 ± 0.01 | 0.16 ± 0.0059 | 0.23 ± 0.021 | 0.218 ± 0.0027
29 | ILFVCVCVLHVG | 0.112 ± 0.0052 | 0.198 ± 0.012 | 0.17 ± 0.027 | 0.307 ± 0.0048 | 0.121 ± 0.013 | 0.141 ± 0.019 | 0.252 ± 0.021 | 0.242 ± 0.025
30 | INKRDARIHLLM | 0.658 ± 0.012 | 0.6975 ± 0.0064 | 0.623 ± 0.023 | 0.701 ± 0.00084 | 0.32 ± 0.034 | 0.382 ± 0.029 | 0.547 ± 0.0084 | 0.47 ± 0.0047
31 | IPHLNCCCCLVR | 0.527 ± 0.013 | 0.497 ± 0.023 | 0.334 ± 0.035 | 0.5878 ± 0.0048 | 0.272 ± 0.0053 | 0.328 ± 0.02 | 0.5503 ± 0.0019 | 0.442 ± 0.052
32 | IRDGPWKRVLVV | 0.599 ± 0.031 | 0.596 ± 0.01 | 0.48 ± 0.028 | 0.642 ± 0.0055 | 0.125 ± 0.0086 | 0.157 ± 0.015 | 0.245 ± 0.0076 | 0.348 ± 0.051
33 | IRVLACFLFAVS | 0.202 ± 0.016 | 0.305 ± 0.017 | 0.172 ± 0.0094 | 0.32 ± 0.0072 | 0.095 ± 0.0081 | 0.12 ± 0.022 | 0.247 ± 0.025 | 0.17 ± 0.01
34 | IVFGWGVEWGRL | 0.757 ± 0.038 | 0.803 ± 0.027 | 0.692 ± 0.014 | 0.7973 ± 0.0035 | 0.691 ± 0.038 | 0.701 ± 0.021 | 0.783 ± 0.017 | 0.69 ± 0.28
35 | IVLCVFTVDSDF | 0.36 ± 0.0079 | 0.478 ± 0.058 | 0.314 ± 0.024 | 0.5441 ± 0.0044 | 0.266 ± 0.006 | 0.291 ± 0.021 | 0.5126 ± 0.0039 | 0.407 ± 0.0073
36 | IVSFRLDLSLAV | 0.532 ± 0.069 | 0.5949 ± 0.0024 | 0.452 ± 0.023 | 0.55891 ± 0.00017 | 0.448 ± 0.014 | 0.458 ± 0.02 | 0.5467 ± 0.0024 | 0.534 ± 0.051
37 | IVWVSSFVCRSV | 0.508 ± 0.082 | 0.574 ± 0.02 | 0.436 ± 0.0072 | 0.524 ± 0.0075 | 0.447 ± 0.015 | 0.4257 ± 0.003 | 0.516 ± 0.025 | 0.43 ± 0.044
38 | IWVVIISDSRVG | 0.33375 ± 0.00011 |  | 0.283 ± 0.059 | 0.488 ± 0.02 | 0.247 ± 0.019 | 0.342 ± 0.094 | 0.4636 ± 0.0027 | 0.352 ± 0.0071
39 | IWVWMLSVWLGG | 0.303 ± 0.016 | 0.3731 ± 0.002 | 0.291 ± 0.021 | 0.409 ± 0.022 | 0.273 ± 0.021 | 0.288 ± 0.017 | 0.407 ± 0.018 | 0.349 ± 0.013
